# Test results: US20210301026A1 (ULTRAHUMAN TWELVE, published 2021)
# Changes are numbered by the printed parent chain. Numbers in names are those of the source.
# B1: murine anti-CSF1R antibody 0301 (mu0301), v-domains in human IgG4(S228P) format (antibody, V domains shown)
# VH: EVQLQQSGPELVRPGASVKMSCKASGYTFTDNYMIWVKQSHGKSLEWIGDINPYNGGTTFNQKFKGKATLTVEKSSSTAYMQLNSLTSEDSAVYYCARESPYFSNLYVMDYWGQGTSVTVSS
# VL: NIVLTQSPASLAVSLGQRATISCKASQSVDYDGDNYMNWYQQKPGQPPKLLIYAASNLESGIPARFSGSGSGTDFTLNIHPVEEEDAATYYCHLSNEDLSTFGGGTKLEIK
# B2: MH5 (antibody, human IgG4, V domains shown)
# VH: QVQLVQSGAEVKKPGSSVKVSCKASGYTFSSYYMIWVRQAPGQGLEWMGDINPYNGGANYAQKFQGRVTITADESTSTAYMELSSLRSEDTAVYYCAREGPYFSNLYVMDYWGQGTLVTVSS
# VL: EIVLTQSPATLSLSPGERATLSCRASQSVSYEGENYLNWYQQKPGQAPRLLIYAASNRATGIPARFSGSGSGTDFTLTISSPEPEDFAVYYCQLSNEDLLTFGGGTKVEIK
# notes: Designer (maximally humanized) clone; tested as human IgG4(S228P)/Ckappa IgG; also called mAb-2
# B3: 29D10 (antibody, human IgG4, V domains shown)
# VH: B2 VH with S30T, Y60F
# VL: B2 VL with P82L
# notes: Library-derived clone, tested as human IgG4(S228P)/Ckappa IgG; framework residue limits counted on the grafts
# B4: MH33 (antibody, human IgG4, V domains shown)
# VH: B2 VH with Y32A, Q114R
# VL: B2 VL
# notes: Deimmunized MH5 derivative, human IgG4(S228P)/Ckappa IgG
# B5: MH13 (antibody, human IgG4, V domains shown)
# VH: B2 VH with Y32N
# VL: B2 VL
# notes: as for B4
# B6: MH31 (antibody, human IgG4, V domains shown)
# VH: B2 VH with Y32A, Q114R
# VL: B2 VL with L50A, L51A
# notes: as for B4
# B7: MH14 (antibody, human IgG4, V domains shown)
# VH: B2 VH with Y32A
# VL: B2 VL with L50S, L51A
# notes: as for B4
# B8: MH23 (antibody, human IgG4, V domains shown)
# VH: B2 VH with Y32H
# VL: B2 VL with L50A, L51A
# notes: as for B4
# B9: MH22 (antibody, human IgG4, V domains shown)
# VH: B2 VH with Y32H
# VL: B2 VL with L50S, L51A
# notes: as for B4
# B10: 29E11 (antibody, human IgG4, V domains shown)
# VH: B2 VH with S30T, G57T, N59T
# VL: B2 VL with E32D, N38A, P82L
# notes: as for B3
# B11: 30C11 (antibody, human IgG4, V domains shown)
# VH: B2 VH with S30T, Y32N, G57T, N59T, G100D
# VL: B2 VL with E34D, R58L, A59E, P82L, E97Q
# notes: as for B3
# B12: MH38 (antibody, human IgG4, V domains shown)
# VH: B2 VH with Y32H, Q114R
# VL: B2 VL with L50S, L51A
# notes: as for B4
# B13: MH9 (antibody, V domains shown)
# VH: B2 VH with M34I, G57T
# VL: B2 VL with N38A, P82L, E97Q
# notes: Designer clone, human IgG4(S228P)/Ckappa IgG
# Target: T1, monomeric human CSF1R ectodomain protein (human, UniProt P07333 20-517)
# T1 construct: also called biotinylated monomeric human CSF1R
# Assay: SPR Biacore, IgG captured, monomeric CSF1R analyte
# Experimental: (§1) Affinity (KD) of purified IgGs was determined via SPR with antigen in-solution on a Biacore 3000 (GE). A mouse anti-human antibody (CH1 specific) was immobilized on a CM5 Sensor Chip to a level of 2000 RU in acetate buffer at pH 4.5 using amine coupling following the Wizard instructions for two channels. One channel was used for background signal correction. The standard running buffer HBS-EP pH 7.4 was used. Regeneration was performed with a single injection of 10 μl of 10 mM Glycine at pH 1.5 at 20 μl/minute. IgG samples were injected for 2 minutes at 50 nM at 30 μl/min followed by and off-rate of 60 seconds. The monomeric ectodomain protein (human CSF1R or cynomolgus monkey CSF1R) was injected in two fold serial dilutions from 100 nM down to 3.1 nM, for 2 minutes at 30 μl/min followed by an off-rate of 300 seconds. The obtained sensorgrams were analysed using the Biacore 3000 evaluation (BIAevaluation) software. The KD was calculated by simultaneous fitting of the association and dissociation phases to a 1:1 Langmuir binding model.
# (§2) Biacore analyses of binding affinity were performed for all IgGs to solution-phase, monomeric human and cyno CSF1R proteins (Table 6). […] Affinity differentials of less than 3-fold between human and cyno target orthologs are highly beneficial in pre-clinical drug development analyses as they allow more accurate design and interpretation of e.g. monkey safety, PK and PD modelling experiments.
Binder,Kd [nM],koff [s⁻¹],kon [M⁻¹ s⁻¹]
B1,0.024,6.9e-05,2.9e+06
B2,0.22,0.00036,1.7e+06
B3,0.2,0.00037,1.9e+06

# Target: T2, monomeric cynomolgus monkey CSF1R ectodomain protein (cynomolgus monkey, UniProt P07333 20-517 (human entry))
# T2 construct: also called monomeric cyno CSF1R; Cyno CSF1R
# T2 chain: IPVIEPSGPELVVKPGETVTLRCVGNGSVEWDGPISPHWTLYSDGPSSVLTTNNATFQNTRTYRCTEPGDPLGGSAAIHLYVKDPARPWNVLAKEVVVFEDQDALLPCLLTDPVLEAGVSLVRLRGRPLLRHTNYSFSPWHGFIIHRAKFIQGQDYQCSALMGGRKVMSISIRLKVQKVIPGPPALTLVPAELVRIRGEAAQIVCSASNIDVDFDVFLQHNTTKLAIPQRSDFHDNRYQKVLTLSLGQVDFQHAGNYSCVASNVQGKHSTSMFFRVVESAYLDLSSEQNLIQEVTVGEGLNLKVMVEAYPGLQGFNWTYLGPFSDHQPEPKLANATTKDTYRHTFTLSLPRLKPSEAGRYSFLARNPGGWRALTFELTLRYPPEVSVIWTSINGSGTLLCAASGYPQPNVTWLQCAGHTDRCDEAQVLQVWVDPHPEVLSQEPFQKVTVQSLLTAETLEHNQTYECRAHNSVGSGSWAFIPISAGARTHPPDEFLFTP
# Assay: SPR Biacore, IgG captured, monomeric CSF1R analyte
# Experimental: as §1, §2
Binder,Kd [nM],koff [s⁻¹],kon [M⁻¹ s⁻¹]
B1,0.1,7.4e-05,740000
B2,0.62,0.00031,500000
B3,0.42,0.00022,520000

# Target: T1, monomeric human CSF1R ectodomain protein
# Assay: SPR Biacore, IgG captured, monomeric CSF1R analyte
# Remark: another data set of the same source
# Experimental: as §1
Binder,Kd [nM],koff [s⁻¹],kon [M⁻¹ s⁻¹],fold of the affinity of hu0301 [fold]
B1,0.024,6.9e-05,2.9e+06,–
B2,0.22,0.00036,1.7e+06,–
B4,1.09,0.00144,1.32e+06,–
B5,0.397,0.000673,1.69e+06,≤ 2

# Target: T2, monomeric cynomolgus monkey CSF1R …
# Assay: SPR Biacore, IgG captured, monomeric CSF1R analyte
# Remark: another data set of the same source
# Experimental: as §1
Binder,Kd [nM],koff [s⁻¹],kon [M⁻¹ s⁻¹],fold of the affinity of hu0301 [fold]
B1,0.1,7.4e-05,740000,–
B2,0.62,0.00031,500000,–
B4,1.74,0.00115,660000,–
B5,0.723,0.000598,827000,≤ 2

# Target: T3, human CSF1R, membrane-presented on cells (human, UniProt P07333 20-972)
# T3 construct: HEK-293 cells transiently transfected with human CSF1R (flow cytometry); the native receptor on primary human monocytes in the proliferation assay; also called human CSF1R+ HEK-293 cells; CSF1R on primary human CD14+ monocytes
# Assay: flow cytometry on HEK-293 cells expressing human CSF1R, MFI
row,Binder,EC50 (read off the curve) [nM]
1,B1,~1
2,B4,~0.7
3,B5,~1

# Target: T4, human insulin (human, UniProt P01308 25-54; P01308 90-110, limits assumed)
# T4 construct: Coated antigen of the polyreactivity ('PK-risk indicator') ELISA
# T4 sequence (P01308 25-54 limits assumed, chain 1 of 2): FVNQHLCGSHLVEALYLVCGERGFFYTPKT
# T4 sequence (P01308 90-110 limits assumed, chain 2 of 2): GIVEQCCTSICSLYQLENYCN
# Assay: ELISA on human insulin (development risk, polyreactivity), binding score
row,Binder,binding result
1,B1,no binding
2,B6,no binding
3,B4,no binding
4,B5,no binding
5,B7,no binding
6,B8,no binding
7,B9,no binding

# Target: T5, cynomolgus monkey CSF1R human Fc tagged recombinant protein (cynomolgus monkey, UniProt P07333 20-517 (human entry), limits assumed)
# T5 construct: also called cyno CSF1R-Fc
# T5 chain: T2 chain
# Assay: direct titration ELISA on coated cyno CSF1R-Fc, IgG4(S228P) format, OD 450 nm
# Experimental: (§3) Binding and cross-reactivity of the lead panel to the recombinant proteins was initially assessed by binding ELISA. The human CSF1R human Fc tagged recombinant protein and the cynomolgus monkey CSF1R human Fc tagged recombinant protein were coated to the surface of MaxiSorp™ flat-bottom 96 well plate at 1 μg/ml. The purified IgG samples were titrated in two fold serial dilutions starting from 500 nM to 0.008 nM and allowed to bind to the coated antigens. The Fabs were detected using mouse anti-c-myc antibody followed by donkey anti-mouse IgG conjugated to horseradish peroxidase. The IgGs were detected using the mouse anti-human IgG conjugated to horseradish peroxidase. Binding signals were visualized with 3,3′,5,5′-Tetramethylbenzidine Substrate Solution (TMB) and the absorbance measured at 450 nm.
row,Binder,binding result
1,B10,binds
2,B11,binds

# Target: T5, cynomolgus monkey CSF1R human Fc tagged …
# Assay: as above
# Remark: another data set of the same source
# Experimental: as §3
Binder,EC50 (read off the curve) [nM],binding result
B1,~0.2,–
B6,–,binds
B12,–,binds
B7,–,binds
B8,–,binds
B9,–,binds

# Target: T6, human CSF1R human Fc tagged recombinant protein (human, UniProt P07333 20-517)
# T6 construct: also called human CSF1R-Fc
# Assay: direct titration ELISA on coated human CSF1R-Fc, IgG4(S228P) format, OD 450 nm
# Experimental: as §3
Binder,EC50 (read off the curve) [nM],binding result
B1,~0.1,–
B13,~10,–
B10,–,binds
B11,–,binds

# Target: T6, human CSF1R human Fc tagged recombinant …
# Assay: as above
# Remark: another data set of the same source
# Experimental: as §3
Binder,EC50 (read off the curve) [nM],binding result
B1,~0.1,–
B6,–,binds
B12,–,binds
B7,–,binds
B8,–,binds
B9,–,binds

# Target: T1, monomeric human CSF1R ectodomain protein
# Assay: AlphaScreen competition with mu0301 IgG4(S228P) for biotinylated monomeric human CSF1R
# Experimental: The AlphaScreen assay (Perkin Elmer) was performed in a 25 μl final volume in 384-well white microtiter plates (Greiner). The reaction buffer contained 1×PBS pH 7.3 (Oxoid, Cat. nr. BR0014G) and 0.05% (v/v) Tween® 20 (Sigma, Cat. nr. P9416). Purified IgG samples were titrated in three fold serial dilutions starting at 500 nM final concentration and incubated with biotinylated human CSF1R for 20 minutes at room temperature. […] The emission of light was measured in the EnVision multilabel plate reader (Perkin Elmer) and analysed using the EnVision manager software. Values were reported as Counts Per Second (CPS) and corrected for crosstalk. The EC50 values were calculated using the […] in GraphPad Prism software (GraphPad Software, La Jolla, Calif.).
row,Binder,IC50 [nM]
1,B1,1.29
2,B2,2.18
3,B3,1.93

# Target: T2, monomeric cynomolgus monkey CSF1R …
# Assay: SPR Biacore; KD on monomeric cyno CSF1R against KD of the same clone on monomeric human CSF1R as reference
# Experimental: as §1
row,Binder,human/cyno affinity differential [fold]
1,B3,< 3
